Data: PMC4601014 (Scientific Reports, 2015)

Biological target: His/S-ΔIBB importin-α1 (mouse, residues 70–529), wild-type (mouse, UniProt P52293 70-529)
Test: ELISA
Conditions: both partners purified

B1: GST-NP ncNLS, wild-type (peptide)
chain: ASQGTKRSYEQMET
notes: also called GST-tagged ncNLS; not shown: GST, N-terminal, kept
With B1 the Kd was 1700 nM.
